Positions count from the first letter of the chain named.
B1: APE05552 (antibody, V domains shown)
VH: EVQLVQSGAEVKKPGESLKISCKGSGYSFTNSYWIGWVRQMPGKGLEWMGMIYPGDSDTRYSPSFQGQVTISSDKSISTAYLQWNSLKASDTAVYYCAKDLAPSAYYDYWGQGTLVTVSS
VL: EIVLTQSPGTLSLSPGERATLSCRASQSVRSSYLAYLAWYQQKPGQAPRLLIYDASSRATGIPDRFSGSGSGTDFTLTISRLEPEDFAVYYCQQYGRLPYTFGQGTRLEIKR
notes: from the stated CDR positions they appear to be variable regions; human IgG (captured with anti-human IgG Fc); also called APE05552.2
B2: APE05551 (antibody, V domains shown)
VH: B1 VH with D108N
VL: B1 VL
notes: from the stated CDR positions they appear to be variable regions; human IgG (captured with anti-human IgG Fc); also called APE05551.2
B3: APE05571 (antibody, V domains shown)
VH: B1 VH with N85A, A102T
VL: B1 VL
notes: from the stated CDR positions they appear to be variable regions; human IgG (captured with anti-human IgG Fc); also called APE05571.1

Columns and labels:
[1] = molecular target: T1, Monomeric soluble human DDR1-avi-his, APE1469.6 (hDDR1) (human, UniProt Q08345 21-416, limits assumed); test: SPR (BIACORE T200), antibody captured on anti-human IgG Fc, monomeric DDR1-avi-his as analyte, 25 C, 1:1 fit
T1 construct: also called hDDR1-avi-his; huDDR1; not shown: avi tag and his tag
T1 sequence (Q08345 21-416 limits assumed): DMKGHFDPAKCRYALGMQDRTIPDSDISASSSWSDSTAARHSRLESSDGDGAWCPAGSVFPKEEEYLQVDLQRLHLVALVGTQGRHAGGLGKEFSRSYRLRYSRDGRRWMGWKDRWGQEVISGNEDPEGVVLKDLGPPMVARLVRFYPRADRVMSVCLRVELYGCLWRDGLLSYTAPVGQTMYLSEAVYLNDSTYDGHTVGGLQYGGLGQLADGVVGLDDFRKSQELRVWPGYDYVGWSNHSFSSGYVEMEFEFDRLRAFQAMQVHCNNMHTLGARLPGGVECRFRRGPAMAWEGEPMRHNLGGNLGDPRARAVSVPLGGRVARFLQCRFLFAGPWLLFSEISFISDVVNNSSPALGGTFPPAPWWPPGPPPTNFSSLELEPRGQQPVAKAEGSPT
Procedure: anti-Human IgG (Fc-specific, ≈10,000 RU) (GE Healthcare, Little Chalfont, Buckinghamshire, UK) was immobilized on a BIACORE™[…] chip using EDC-activated amine coupling chemistry. Antibodies (0.5 μg/mL, 50 second capture time at 10 μl/minute) were then captured using this surface to a target capture level of ˜125 RU. Monomeric soluble human DDR1-avi-his was then flowed over captured antibody (300 second association, 600 second dissociation) using a three-fold serial dilution series from 200 nM to 0.27 nM. Runs were performed at 25° C. and HBS-EP+, pH 7.6 buffer was used for all dilutions (Teknova, Hollister, Calif.). Captured antibody and antigen were removed between each cycle using two regeneration steps with 3M MgCl₂ (60 seconds contact time) to ensure a fresh binding surface for each concentration of antigen. The resulting sensorgrams were fit globally using a 1:1 binding model to calculate on- and off-rates (ka and kd, respectively) and dissociation constants as a measure of overall affinity (KD).

[2] = molecular target: cell surface DDR1 on T47D cells and 293/DDR1 cells (UniProt Q08345); test: cell-based or functional assay
Chain of cell surface DDR1 on T47D cells and 293/DDR1 cells (Q08345 19-913, stated change not applied): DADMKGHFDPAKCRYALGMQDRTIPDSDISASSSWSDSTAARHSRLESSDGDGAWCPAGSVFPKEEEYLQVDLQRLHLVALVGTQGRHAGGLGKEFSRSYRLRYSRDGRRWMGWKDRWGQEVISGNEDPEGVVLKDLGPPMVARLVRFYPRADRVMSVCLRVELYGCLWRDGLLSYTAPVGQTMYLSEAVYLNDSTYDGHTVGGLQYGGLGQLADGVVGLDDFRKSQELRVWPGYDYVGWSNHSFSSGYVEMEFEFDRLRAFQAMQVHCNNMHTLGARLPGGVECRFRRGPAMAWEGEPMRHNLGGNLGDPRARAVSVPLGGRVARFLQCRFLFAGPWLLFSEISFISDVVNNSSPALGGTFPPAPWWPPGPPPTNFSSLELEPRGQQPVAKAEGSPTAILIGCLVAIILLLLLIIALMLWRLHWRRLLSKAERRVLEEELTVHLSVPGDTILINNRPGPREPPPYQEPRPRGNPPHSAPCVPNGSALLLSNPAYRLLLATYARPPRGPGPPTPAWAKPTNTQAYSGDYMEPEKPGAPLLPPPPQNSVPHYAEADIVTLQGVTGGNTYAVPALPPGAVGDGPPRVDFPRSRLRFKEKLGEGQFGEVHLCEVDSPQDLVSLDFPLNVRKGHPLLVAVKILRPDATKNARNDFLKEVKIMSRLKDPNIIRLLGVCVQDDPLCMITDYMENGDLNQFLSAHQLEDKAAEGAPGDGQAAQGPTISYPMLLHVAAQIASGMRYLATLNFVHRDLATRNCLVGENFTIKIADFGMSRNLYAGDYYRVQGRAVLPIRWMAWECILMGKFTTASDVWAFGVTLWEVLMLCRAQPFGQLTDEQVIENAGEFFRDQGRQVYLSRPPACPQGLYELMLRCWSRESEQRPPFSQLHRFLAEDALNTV

[3] = molecular target: T1, Monomeric soluble human DDR1-avi-his, …; test: ELISA on coated hDDR1-avi-his; antibody kept in normal mouse serum (day 0, 1, 4, 7 at 37 C; day 7 at 4 C) or PBS day 0; absorbance 450-540 nm
Procedure: The APE05570 and APE05571 antibodies described in Table 4 were tested for the ability to bind cell surface DDR in mouse serum. The antibodies were incubated in normal mouse serum for 1, 4, or 7 days at 37° C. Varying concentrations of the antibodies were then analyzed for ability to bind to DDR1 by an ELISA assay. Briefly, hDDR1-avi-his was coated on plates at 1 μg/m overnight at 4° C. and washed three times in phosphate buffered saline with Tween (PBST). Plates were then blocked with 3% BSA/PBS (200 μl/well) for one hour. The antibodies were then diluted, added to the washed plates, and incubated for two hours at room temperature. Bound antibodies were detected with goat anti HuIgG-(H+L chain)-horseradish peroxidase (HRP) at a dilution of 1:10,000. After washing the plates, 100 μl of 3,3′,5,5′-tetramethylbenzidine (TMB) substrate was added to detect antibody, and plates were read at 450 nm using a SpectraMax™ microplate reader (Molecular Devices, LLC., Sunnyvale, Calif.).

Binder | Kd [1] | koff [1] | kon [1] | P-DDR1 IC50 (nM); collagen I-stimulated T47D cells, Phospho-DDR1 ELISA [2] | EC50 (read off the curve) [3]
B1 | 43.8 nM | 0.0222 s⁻¹ | 507000 M⁻¹ s⁻¹ | 27.6 nM | –
B2 | 51.4 nM | 0.0284 s⁻¹ | 551000 M⁻¹ s⁻¹ | 26.1 nM | –
B3 | 47 nM | 0.0233 s⁻¹ | 496000 M⁻¹ s⁻¹ | 19.3 nM | ~7 ng/mL
